Columns and labels:
[1] = molecular target: T1, subunit-a of the yeast mitochondrial F1Fo ATP synthase (S. cerevisiae, UniProt P00854 11-259); experiment: cryo-EM structure; purified yeast F1Fo reconstituted in nanodiscs (POPC and cardiolipin, 12% by weight), incubated with BDQ (30 uM on ice 30 min, or 5 uM at room temperature 10 min); reconstruction focused on Fo at 4.2 A, whole F1Fo at 3.9 A; settings: both partners purified
T1 construct: ATP synthase subunit a (Fo sector), S. cerevisiae mitochondrial; The His6 tag of strain USY006 is on ATP2 (beta subunit), not on this chain; also called a-subunit
T1 sequence (looked up): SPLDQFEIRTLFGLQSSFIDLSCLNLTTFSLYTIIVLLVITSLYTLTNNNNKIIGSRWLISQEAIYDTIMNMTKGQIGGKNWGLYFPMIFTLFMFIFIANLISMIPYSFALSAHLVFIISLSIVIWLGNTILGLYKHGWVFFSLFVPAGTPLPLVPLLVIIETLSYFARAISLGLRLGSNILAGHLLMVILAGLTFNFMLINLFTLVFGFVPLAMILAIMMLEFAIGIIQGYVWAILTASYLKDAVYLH

[2] = molecular target: the molecule itself; experiment: as above

B1: subunit-c of the yeast mitochondrial F1Fo ATP synthase (c10-ring) (natural protein, S. cerevisiae, UniProt P61829 1-76, looked up)
chain: MQLVLAAKYIGAGISTIGLLGAGIGIAIVFAALINGVSRNPSIKDTVFPMAILGFALSEATGLFCLMVSFLLLFGV
notes: ATP synthase subunit c (subunit 9, Fo sector), S. cerevisiae mitochondrial; as modelled in PDB 6WTD (chains Q and R are two of the ten copies; initial model PDB 6CP7); also called c-subunit; c-ring; copies: 10
binding result [1]: binds | stoichiometry N [2]: 10

From publication PMC7438494, “Bedaquiline inhibits the yeast and human mitochondrial ATP synthases” (Communications Biology, 2020)
